The values that follow come from US12123876B2, “Antibody binding to HEG1 and use of the antibody for detection and treatment of mesothelioma” (Kanagawa Prefectural Hospital Organization, priority 2016, dated 2024).

The subject of the test is SKM9-2 antibody. Description: Western blot reactivity of human HEG1 fragments expressed in ACC-MESO-1 with SKM9-2 antibody. The test is classed as binding, mouse. The conditions noted are these: Western blot of cell lysate. How it is done:
In this Example, the mesothelioma cell line ACC-MESO-1 was allowed to express a human HEG1 fragment with the endogenous HEG1 of ACC-MESO-1 knocked down, and the reactivity with the SKM9-2 antibody was examined. Subsequently, the reactivity with the antibody was tested for the epitope region through alanine scanning, and key amino acids for binding to the antibody were determined.
Gene transfer was performed with HEG1 siRNA (H9106) (SEQ ID NOs: 40, 41) and human HEG1 for the mesothelioma cell line ACC-MESO-1, and the reactivity of the SKM9-2 was examined through Western blot analysis. A full length protein (HEG1 full length) or a fragment (HEG1 3 kb, HEG1 2 kb, or HEG1 1 kb) of the human HEG1 was used. The full length human HEG1 protein, a protein having the amino acid sequence set forth in SEQ ID NO: 35, was obtained through inserting a base sequence set forth in SEQ ID NO: 34 into pFLAG-CMV1 (Sigma-Aldrich Japan K.K.) to obtain a plasmid, transforming the plasmid, and allowing the mesothelioma cell line to express the plasmid. Fragment HEG1 3 kb was obtained through inserting a fragment corresponding to a sequence from position 285, leucine, to position 1387, phenylalanine, of SEQ ID NO: 35 into pFLAG-CMV1 (Sigma-Aldrich Japan K.K.) in an in-frame manner, and allowing the mesothelioma cell line to express the resultant. HEG1 2 kb and HEG1 1 kb were obtained through allowing the mesothelioma cell line to express products similarly obtained from a fragment corresponding to a sequence from position 677, leucine, to position 1387, phenylalanine, of SEQ ID NO: 35 and a fragment corresponding to a sequence from position 992, valine, to position 1387, phenylalanine, of SEQ ID NO: 35, respectively. Each cell lysate was analyzed through Western blot with the SKM9-2 antibody.
Further, the region in exon 7 of HEG1 was analyzed in detail. The amino acid sequence of a part of exon 7 of HEG1 was connected to the N-terminal side of a protein obtained by connecting a GPI anchor signal to human SLURP1 (SEQ ID NO: 42; hereinafter referred to as “SLURPgpi”) to produce a fusion protein, and the reactivity of the SKM9-2 was examined through Western blot analysis with the fusion protein. A signal sequence (SEQ ID NO: 43) was added to the N-terminal of the fusion protein before expression.
Used fusion proteins of a partial sequence of exon 7 of HEG1 and SLURPgpi were as follows: • a fragment obtained by bonding a fragment from amino acid No. 783, aspartic acid, to amino acid No. 991, serine, to SLURPgpi (7.6); • a fragment obtained by bonding a fragment from amino acid No. 832, glutamine, to amino acid No. 991, serine, to SLURPgpi (7.7); • a fragment obtained by bonding a fragment from amino acid No. 886, glutamine, to amino acid No. 991, serine, to SLURPgpi (7.8); • a fragment obtained by bonding a fragment from amino acid No. 941, alanine, to amino acid No. 991, serine, to SLURPgpi (7.9); • a fragment obtained by bonding SEQ ID NO: 44 to SLURPgpi (7.61); • a fragment obtained by bonding SEQ ID NO: 45 to SLURPgpi (7.62); • a fragment obtained by bonding SEQ ID NO: 46 to SLURPgpi (7.63); • a fragment obtained by bonding SEQ ID NO: 47 to SLURPgpi (7.64); • a fragment obtained by bonding SEQ ID NO: 48 to SLURPgpi (7.623); • a fragment obtained by bonding SEQ ID NO: 49 to SLURPgpi (7.6231); • a fragment obtained by bonding SEQ ID NO: 50 to SLURPgpi (7.6232); • a fragment obtained by bonding SEQ ID NO: 51 to SLURPgpi (7.6241); and • a fragment obtained by bonding SEQ ID NO: 52 to SLURPgpi (7.6242).

B1: HEG1 2 kb: HEG1 fragment, position 677 leucine to position 1387 phenylalanine of SEQ ID NO: 35 (protein, listed as Homo sapiens)
chain: SSGPPLPLPSVSQSHHLFSSILPSTRASVHLLKSTSDASTPWSSSPSPLPVSLTTSTSAPLSVSQTTLPQSSSTPVLPRARETPVTSFQTSTMTSFMTMLHSSQTADLKSQSTPHQEKVITESKSPSLVSLPTESTKAVTTNSPLPPSLTESSTEQTLPATSTNLAQMSPTFTTTILKTSQPLMTTPGTLSSTASLVTGPIAVQTTAGKQLSLTHPEILVPQISTEGGISTERNRVIVDATSGLIPLTSVPTSAKEMTTKLGVTAEYSPASRSLGTSPSPQTTVVSTAEDLAPKSATFAVQSSTQSPTTLSSSASVNSCAVNPCLHNGECVADNTSRGYHCRCPPSWQGDDCSVDVNECLSNPCPSTAMCNNTQGSFICKCPVGYQLEKGICNLVRTFVTEFKLKRTFLNTTVEKHSDLQEVENEITKTLNMCFSALPSYIRSTVHASRESNAVVISLQTTFSLASNVTLFDLADRMQKCVNSCKSSAEVCQLLGSQRRIFRAGSLCKRKSPECDKDTSICTDLDGVALCQCKSGYFQFNKMDHSCRACEDGYRLENETCMSCPFGLGGLNCGNPYQLITVVIAAAGGGLLLILGIALIVTCCRKNKNDISKLIFKSGDFQMSPYAEYPKNPRSQEWGREAIEMHENGSTKNLLQMTDVYYSPTSVRNPELERNGLYPAYTGLPGSRHSCIFPGQYNPSFISDESRRRDYF
Regarding B1, the “Binding to SKM9-2 antibody (positive/negative)” value (from here on “Binding … (positive/negative)”) is “positive”.

B2: HEG1 full length: full length human HEG1 protein, SEQ ID NO: 35, expressed in mesothelioma cell line (protein, listed as Homo sapiens)
chain: MASPRASRWPPPLLLLLLPLLLLPPAAPGTRDPPPSPARRALSLAPLAGAGLELQLERRPEREPPPTPPRERRGPATPGPSYRAPEPGAATQRGPSGRAPRGGSADAAWKHWPESNTEAHVENITFYQNQEDFSTVSSKEGVMVQTSGKSHAASDAPENLTLLAETADARGRSGSSSRTNFTILPVGYSLEIATALTSQSGNLASESLHLPSSSSEFDERIAAFQTKSGTASEMGTERAMGLSEEWTVHSQEATTSAWSPSFLPALEMGELTTPSRKRNSSGPDLSWLHFYRTAASSPLLDLSSSSESTEKLNNSTGLQSSSVSQTKTMHVATVFTDGGPRTLRSLTVSLGPVSKTEGFPKDSRIATTSSSVLLSPSAVESRRNSRVTGNPGDEEFIEPSTENEFGLTSLRWQNDSPTFGEHQLASSSEVQNGSPMSQTETVSRSVAPMRGGEITAHWLLTNSTTSADVTGSSASYPEGVNASVLTQFSDSTVQSGGSHTALGDRSYSESSSTSSSESLNSSAPRGERSIAGISYGQVRGTAIEQRTSSDHTDHTYLSSTFTKGERALLSITDNSSSSDIVESSTSYIKISNSSHSEYSSFFHAQTERSNISSYDGEYAQPSTESPVLHTSNLPSYTPTINMPNTSVVLDTDAEFVSDSSSSSSSSSSSSSSSSSSSSGPPLPLPSVSQSHHLFSSILPSTRASVHLLKSTSDASTPWSSSPSPLPVSLTTSTSAPLSVSQTTLPQSSSTPVLPRARETPVTSFQTSTMTSFMTMLHSSQTADLKSQSTPHQEKVITESKSPSLVSLPTESTKAVTTNSPLPPSLTESSTEQTLPATSTNLAQMSPTFTTTILKTSQPLMTTPGTLSSTASLVTGPIAVQTTAGKQLSLTHPEILVPQISTEGGISTERNRVIVDATSGLIPLTSVPTSAKEMTTKLGVTAEYSPASRSLGTSPSPQTTVVSTAEDLAPKSATFAVQSSTQSPTTLSSSASVNSCAVNPCLHNGECVADNTSRGYHCRCPPSWQGDDCSVDVNECLSNPCPSTAMCNNTQGSFICKCPVGYQLEKGICNLVRTFVTEFKLKRTFLNTTVEKHSDLQEVENEITKTLNMCFSALPSYIRSTVHASRESNAVVISLQTTFSLASNVTLFDLADRMQKCVNSCKSSAEVCQLLGSQRRIFRAGSLCKRKSPECDKDTSICTDLDGVALCQCKSGYFQFNKMDHSCRACEDGYRLENETCMSCPFGLGGLNCGNPYQLITVVIAAAGGGLLLILGIALIVTCCRKNKNDISKLIFKSGDFQMSPYAEYPKNPRSQEWGREAIEMHENGSTKNLLQMTDVYYSPTSVRNPELERNGLYPAYTGLPGSRHSCIFPGQYNPSFISDESRRRDYF
With B2, the “Binding … (positive/negative)” value is “positive”.

B3: HEG1 1 kb: HEG1 fragment, position 992 valine to position 1387 phenylalanine of SEQ ID NO: 35 (protein, listed as Homo sapiens)
chain: VNSCAVNPCLHNGECVADNTSRGYHCRCPPSWQGDDCSVDVNECLSNPCPSTAMCNNTQGSFICKCPVGYQLEKGICNLVRTFVTEFKLKRTFLNTTVEKHSDLQEVENEITKTLNMCFSALPSYIRSTVHASRESNAVVISLQTTFSLASNVTLFDLADRMQKCVNSCKSSAEVCQLLGSQRRIFRAGSLCKRKSPECDKDTSICTDLDGVALCQCKSGYFQFNKMDHSCRACEDGYRLENETCMSCPFGLGGLNCGNPYQLITVVIAAAGGGLLLILGIALIVTCCRKNKNDISKLIFKSGDFQMSPYAEYPKNPRSQEWGREAIEMHENGSTKNLLQMTDVYYSPTSVRNPELERNGLYPAYTGLPGSRHSCIFPGQYNPSFISDESRRRDYF
As to B3, the “Binding … (positive/negative)” value is recorded as “negative”.

B4: 7.6: HEG1 exon 7 fragment from amino acid No. 783 bonded to SLURPgpi; SEQ ID NO: 66 in FIG. 13 (protein)
chain: DLKSQSTPHQEKVITESKSPSLVSLPTESTKAVTTNSPLPPSLTESSTEQTLPATSTNLAQMSPTFTTTILKTSQPLMTTPGTLSSTASLVTGPIAVQTTAGKQLSLTHPEILVPQISTEGGISTERNRVIVDATSGLIPLTSVPTSAKEMTTKLGVTAEYSPASRSLGTSPSPQTTVVSTAEDLAPKSATFAVQSSTQSPTTLSSSASGSLKCYTCKEPMTSASCRTITRCKPEDTACMTTLVTVEAEYPFNQSPVVTRSCSSSCVATDPDSIGAAHLIFCCFRDLCNSELSRDGAPSLGSPGGLLLALALFLLLGVLL
Consider B4, for which the “Binding … (positive/negative)” value is reported as “positive”. Further, under “listed as fragment 7.6”, the “Binding … (positive/negative)” value is “positive signal”.

B5: HEG1 3 kb: HEG1 fragment, position 285 leucine to position 1387 phenylalanine of SEQ ID NO: 35 (protein, listed as Homo sapiens)
chain: LSWLHFYRTAASSPLLDLSSSSESTEKLNNSTGLQSSSVSQTKTMHVATVFTDGGPRTLRSLTVSLGPVSKTEGFPKDSRIATTSSSVLLSPSAVESRRNSRVTGNPGDEEFIEPSTENEFGLTSLRWQNDSPTFGEHQLASSSEVQNGSPMSQTETVSRSVAPMRGGEITAHWLLTNSTTSADVTGSSASYPEGVNASVLTQFSDSTVQSGGSHTALGDRSYSESSSTSSSESLNSSAPRGERSIAGISYGQVRGTAIEQRTSSDHTDHTYLSSTFTKGERALLSITDNSSSSDIVESSTSYIKISNSSHSEYSSFFHAQTERSNISSYDGEYAQPSTESPVLHTSNLPSYTPTINMPNTSVVLDTDAEFVSDSSSSSSSSSSSSSSSSSSSSGPPLPLPSVSQSHHLFSSILPSTRASVHLLKSTSDASTPWSSSPSPLPVSLTTSTSAPLSVSQTTLPQSSSTPVLPRARETPVTSFQTSTMTSFMTMLHSSQTADLKSQSTPHQEKVITESKSPSLVSLPTESTKAVTTNSPLPPSLTESSTEQTLPATSTNLAQMSPTFTTTILKTSQPLMTTPGTLSSTASLVTGPIAVQTTAGKQLSLTHPEILVPQISTEGGISTERNRVIVDATSGLIPLTSVPTSAKEMTTKLGVTAEYSPASRSLGTSPSPQTTVVSTAEDLAPKSATFAVQSSTQSPTTLSSSASVNSCAVNPCLHNGECVADNTSRGYHCRCPPSWQGDDCSVDVNECLSNPCPSTAMCNNTQGSFICKCPVGYQLEKGICNLVRTFVTEFKLKRTFLNTTVEKHSDLQEVENEITKTLNMCFSALPSYIRSTVHASRESNAVVISLQTTFSLASNVTLFDLADRMQKCVNSCKSSAEVCQLLGSQRRIFRAGSLCKRKSPECDKDTSICTDLDGVALCQCKSGYFQFNKMDHSCRACEDGYRLENETCMSCPFGLGGLNCGNPYQLITVVIAAAGGGLLLILGIALIVTCCRKNKNDISKLIFKSGDFQMSPYAEYPKNPRSQEWGREAIEMHENGSTKNLLQMTDVYYSPTSVRNPELERNGLYPAYTGLPGSRHSCIFPGQYNPSFISDESRRRDYF
As to B5, the “Binding … (positive/negative)” value was “positive”.
